Our source for the Kd values is the Immune Epitope Database (IEDB).

Some results are limits rather than exact numbers.

In one assay the target is HLA-B*83:01. Description: IEDB peptide-MHC binding, purified MHC/competitive/fluorescence; filed as Kd, often an IC50 or EC50 that approximates it; ≥ and ≤ were set here for values at or beyond the usual limits of such assays.
The target in another assay is HLA-B*45:06. The assay is described as above.
The target in the next assay is HLA-B*27:20. The assay is described as above.
A further assay addresses HLA-B*15:42. Described as above.
In a further assay the target is HLA-B*15:01. The experiment in a line: IEDB peptide-MHC binding, purified MHC/direct/fluorescence; filed as Kd, often an IC50 or EC50 that approximates it; ≥ and ≤ were set here for values at or beyond the usual limits of such assays.
Another assay concerns the target HLA-B*15:02. Described as above.
In another assay the target is HLA-B*46:01. The description is as above.
In the next assay the target is HLA-C*15:02. Described as above. The following applies: source organism: Escherichia coli HS.
A further assay has as its target HLA-B*51:01. The description is as above. The following applies: source organism: Escherichia coli O157:H7.
Another assay addresses HLA-B*07:02. The description is as above.
In another assay the target is HLA-C*08:02. The description is as above. The following applies: source organism: Escherichia coli HS.
The target of assay [1] is HLA-C*06:02. Description: IEDB peptide-MHC binding, purified MHC/competitive/fluorescence; filed as Kd, often an IC50 or EC50 that approximates it; ≥ and ≤ were set here for values at or beyond the usual limits of such assays. The following applies: source organism: Escherichia coli HS.
The next assay deals with HLA-C*14:02. The description is as above. The following applies: source organism: Escherichia coli HS.
Assay [2] concerns the target HLA-C*06:02. The experiment in a line: IEDB peptide-MHC binding, purified MHC/direct/fluorescence; filed as Kd, often an IC50 or EC50 that approximates it; ≥ and ≤ were set here for values at or beyond the usual limits of such assays. The following applies: source organism: Escherichia coli O157:H7 str. EDL933.
The next assay concerns the target HLA-B*48:01. Described as above. The following applies: source organism: Brucella abortus 2308.
Assay [3] concerns the target HLA-B*73:01. Described as above. The following applies: source organism: Brucella suis 1330.
Another assay has as its target HLA-B*27:05. The assay is described as above.
In assay [4] the target is HLA-B*73:01. The experiment in a line: IEDB peptide-MHC binding, purified MHC/competitive/fluorescence; filed as Kd, often an IC50 or EC50 that approximates it; ≥ and ≤ were set here for values at or beyond the usual limits of such assays.
In assay [5] the target is HLA-B*40:01. The experiment in a line: IEDB peptide-MHC binding, purified MHC/direct/fluorescence; filed as Kd, often an IC50 or EC50 that approximates it; ≥ and ≤ were set here for values at or beyond the usual limits of such assays.
A further assay addresses HLA-B*58:01. The description is as above.
For a further assay, the target named is HLA-A*31:01. The description is as above.
The next assay addresses HLA-B*35:01. Described as above.
The next assay concerns the target HLA-A*02:01. The description is as above.
The next assay addresses HLA-A*26:01. The description is as above.
For a further assay, the target named is HLA-A*11:01. The description is as above.
In a further assay the target is HLA-B*44:02. The description is as above.
A further assay has as its target HLA-A*02:19. The description is as above. The following applies: source organism: Yersinia enterocolitica subsp. enterocolitica 8081.
The target in a further assay is HLA-A*03:01. The description is as above.
For the next assay, the target named is HLA-A*69:01. The description is as above.
A further assay concerns the target HLA-A*01:01. Described as above.
The target in assay [6] is HLA-B*40:01. The experiment in a line: IEDB peptide-MHC binding, purified MHC/competitive/fluorescence; filed as Kd, often an IC50 or EC50 that approximates it; ≥ and ≤ were set here for values at or beyond the usual limits of such assays. The following applies: source organism: Salmonella enterica subsp. enterica serovar Paratyphi B str. SPB7.
For another assay, the target named is HLA-B*39:01. Described as above. The following applies: source organism: Salmonella enterica subsp. enterica serovar Paratyphi B str. SPB7.
For the next assay, the target named is HLA-A*24:03. Description: IEDB peptide-MHC binding, purified MHC/direct/fluorescence; filed as Kd, often an IC50 or EC50 that approximates it; ≥ and ≤ were set here for values at or beyond the usual limits of such assays. The following applies: source organism: Cryptosporidium parvum.
A further assay has as its target HLA-B*08:01. Described as above. The following applies: source organism: Cryptosporidium parvum.
In another assay the target is HLA-A*02:50. The experiment in a line: IEDB peptide-MHC binding, purified MHC/competitive/fluorescence; filed as Kd, often an IC50 or EC50 that approximates it; ≥ and ≤ were set here for values at or beyond the usual limits of such assays. The following applies: source organism: Cryptosporidium parvum.
[7] abbreviates: source organism: human gammaherpesvirus 4.
Where [8] appears, read: source organism: Orthohantavirus hantanense.
Setting [9] is: source organism: Escherichia coli HS.
Where [10] appears, read: source organism: Human herpesvirus 4 strain B95-8.
Setting [11] is: source organism: Yersinia pestis Nepal516.
Where [12] appears, read: source organism: Yersinia pestis.
Setting [13] is: source organism: Salmonella enterica subsp. enterica serovar Paratyphi B str. SPB7.
Where [14] appears, read: source organism: Cryptosporidium parvum.

In general, Kd refers to the concentration at which binding is half-saturated. Read a low Kd as higher affinity. For RRLHRLLLM, the Kd in the assay with HLA-B*83:01 (setting [7]) is at least 5 µM; with HLA-B*45:06 (setting [7]) it was at least 5 µM; with HLA-B*27:20 (setting [7]), at most 0.0001 µM; with HLA-B*15:42 (setting [7]), at least 5 µM.

LQYAIRSVF: the Kd with HLA-B*15:01 (setting [8]) is 0.004 µM; with HLA-B*15:02 (source organism: Hantaan virus Q32), 0.008 µM; with HLA-B*46:01 (setting [8]), 1.95 µM.

In the case of YLREHIRAM, the equilibrium dissociation constant (Kd) with HLA-C*15:02 is at least 20 µM; with HLA-B*51:01, at least 20 µM; with HLA-B*07:02 (source organism: Escherichia coli O157:H7) it was 0.006 µM; in the assay with HLA-C*08:02 it was at least 20 µM; in the assay with HLA-B*83:01 (setting [9]), at least 5 µM; with HLA-B*45:06 (setting [9]), at least 5 µM. In addition, the Kd with HLA-C*06:02 [1] was 0.0684 µM; with HLA-C*14:02 it was 0.0018 µM; in the assay with HLA-B*15:42 (setting [9]), at least 5 µM.

For TRYYWDIHL, in the assay with HLA-C*06:02 [2], the Kd was 0.051 µM.

Turning to YRSGVPVEK, the dissociation constant Kd in the assay with HLA-B*48:01 was at least 20 µM; with HLA-B*73:01 [3], at least 20 µM; in the assay with HLA-B*27:05 (source organism: Brucella abortus 2308), 0.0619 µM.

The sequence YRGGGQQHV gave a Kd with HLA-B*73:01 [4] (source organism: Brucella abortus S19) of 3 µM.

For the sequence RRRRRRAAL, the Kd is at least 5 µM with HLA-B*83:01 (setting [10]), at least 5 µM in the assay with HLA-B*45:06 (setting [10]), at most 0.001 µM in the assay with HLA-B*27:20 (setting [10]) and at least 5 µM with HLA-B*15:42 (setting [10]).

Consider KEWCGNLIV, for which the Kd with HLA-B*73:01 [4] (source organism: Entamoeba histolytica) was at least 20 µM.

Turning to WLWVSSSDM, the dissociation constant Kd in the assay with HLA-B*40:01 [5] (setting [11]) is at least 20 µM; in the assay with HLA-B*15:01 (setting [12]), 1.37 µM; with HLA-B*15:02 (source organism: Yersinia enterocolitica subsp. enterocolitica 8081) it was 0.003 µM; with HLA-B*58:01 (setting [11]) it was at least 20 µM; with HLA-A*31:01 (setting [11]), at least 20 µM; in the assay with HLA-B*35:01 (setting [12]), 0.0224 µM. Further, the Kd is 1 µM with HLA-A*02:01 (setting [12]); at least 20 µM with HLA-A*26:01 (setting [11]); at least 5 µM in the assay with HLA-B*07:02 (setting [12]); at least 20 µM with HLA-A*11:01 (setting [11]); at least 20 µM with HLA-B*44:02 (setting [11]); 0.012 µM with HLA-A*02:19. Moreover, the Kd with HLA-A*03:01 (setting [11]) is at least 20 µM; with HLA-A*69:01 (setting [12]) it was 0.114 µM; with HLA-A*01:01 (setting [11]) it was at least 20 µM; in the assay with HLA-B*27:05 (setting [12]), at least 5 µM; with HLA-B*46:01 (setting [11]), at least 20 µM.

As for YESSHWLVV, the dissociation constant (Kd) in the assay with HLA-B*40:01 [6] is 0.005 µM; in the assay with HLA-B*83:01 (setting [13]), at least 5 µM; with HLA-B*39:01 it was 0.0372 µM; with HLA-B*45:06 (setting [13]) it was at least 5 µM; in the assay with HLA-B*27:20 (setting [13]) it was 0.113 µM; in the assay with HLA-B*15:42 (setting [13]) it was at least 5 µM.

For WLPWIPQLI, the dissociation constant Kd with HLA-B*40:01 [5] (setting [14]) was at least 20 µM; with HLA-A*24:03, 3.44 µM; with HLA-B*15:01 (setting [14]), at least 5 µM; with HLA-B*58:01 (setting [14]), at least 20 µM; in the assay with HLA-A*31:01 (setting [14]), at least 20 µM; with HLA-B*35:01 (setting [14]), 16 µM. Further, the Kd with HLA-A*02:01 (setting [14]) is 1.24 µM; with HLA-A*26:01 (setting [14]), at least 20 µM; with HLA-B*08:01, at least 20 µM; in the assay with HLA-A*11:01 (setting [14]), at least 20 µM; with HLA-B*44:02 (setting [14]), at least 20 µM; with HLA-A*03:01 (setting [14]), at least 20 µM. For the same sequence, the Kd with HLA-A*69:01 (setting [14]) is 0.415 µM; in the assay with HLA-A*01:01 (setting [14]), at least 20 µM; with HLA-B*27:05 (setting [14]), at least 20 µM; in the assay with HLA-A*02:50 it was 0.0046 µM.
